Drawing on paper PMC7465668, this text covers stoichiometry N for one substance.

The target of this test is S-enantioselective imine reductase from Mycobacterium smegmatis (S-IRED-Ms) (Mycobacterium smegmatis). Put plainly: crystal structure; holo-S-IRED-Ms co-crystallised with 5 mM NADPH; 10 mg/mL protein, 20% (w/v) PEG 3350, 0.2 M sodium formate, sitting drop, 4 °C; 1.55 Å, five monomers in the asymmetric unit.

For the substance “S-enantioselective imine reductase from Mycobacterium smegmatis (S-IRED-Ms) (enzyme)”, the stoichiometry N worked out at 2.
